# Laboratory results: IntAct's records for PubMed 23565059
# B1: Homeodomain-interacting protein kinase 2 (Mus musculus), Q9QZR5 (parent)
# chain: MAPVYEGMASHVQVFSPHTLQSSAFCSVKKLKVEPSSNWDMTGYGSHSKVYSQSKNIPPSQPASTTVSTSLPIPNPSLPYEQTIIFPGSTGHIVVTSASSTSVTGQVLGGPHNLMRRSTVSLLDTYQKCGLKRKSEEIENTSSVQIIEEHPPMIQNNASGATVATATTSTATSKNSGSNSEGDYQLVQHEVLCSMTNTYEVLEFLGRGTFGQVVKCWKRGTNEIVAIKILKNHPSYARQGQIEVSILARLSTESADDYNFVRAYECFQHKNHTCLVFEMLEQNLYDFLKQNKFSPLPLKYIRPVLQQVATALMKLKSLGLIHADLKPENIMLVDPSRQPYRVKVIDFGSASHVSKAVCSTYLQSRYYRAPEIILGLPFCEAIDMWSLGCVIAELFLGWPLYPGASEYDQIRYISQTQGLPAEYLLSAGTKTTRFFNRDTDSPYPLWRLKTPDDHEAETGIKSKEARKYIFNCLDDMAQVNMTTDLEGSDMLVEKADRREFIDLLKKMLTIDADKRVTPIETLNHPFVTMTHLLDFPHSAHVKSCFQNMEICKRRVNMYDTVNQSKTPFITHVAPSTSTNLTMTFNNQLTTVHNQAPTTSSATLSLANPEVSILNYQSALYQPSAASMAAVAPRSMPLQTGTAQICARPDPFQQALIVCPPGFQGLQASPSKHAGYSVRMENAVPIVTQAPGAQPLQIQPGLLAQQAWPGGAQQILLPPAWQQLTGVATHTSVQHAAVIPETMAGTQQLADWRNTHAHGSHYNPIMQQPALLTGHVTLPAAQPLNVGVAHVMRQQPTSTTSSRKSKQHQSSVRNVSTCEVTSSQAISSPQRSKRVKENTPPRCAMVHSSPACSTSVTCGWGDVASSTTRERQRQTIVIPDTPSPTVSVITISSDTDEEEEQKHAPTSTVSKQRKNVISCVTVHDSPYSDSSSNTSPYSVQQRTGHNGTNTLDTKGGLENHCTGNPRTIIVPPLKTQASEVLVECDSLGPAISASHHSSSFKSKSSSTVTSTSGHSSGSSSGAIAYRQQRPGPHFQQQQPLNLSQAQQHMAADRTGSHRRQQAYITPTMAQAPYTFPHNSPSHGTVHPHLAAAAHLPTQPHLYTYTAPTALGSTGTVAHLVASQGSARHTVQHTAYPASIVHQVPVSMGPRVLPSPTIHPSQYPAQFAHQTYISASPASTVYTGYPLSPAKVNQYPYI
# Variants of: B1
# Conditions: with mef2c_mouse Mef2c
row,effect of a mutation on the interaction,Variant
1,decreasing interaction strength,K228A
